Results: publication PMC10850970, “Characterization of N-glycosylation and its functional role in SIDT1-Mediated RNA uptake”

Assays:
SIDT1 ECD-Fc = biological target: T1, SIDT1 ECD-Fc (Homo sapiens, UniProt Q9NXL6 23-310); test: EMSA; pH 5.5; legend says FAM-labeled RNA; EMSA: 40 mM Tris-acetate pH 5.5, 100 mM NaCl, 2.5 mM EDTA, 5% glycerol, RT 30 min, 2.5 uM RNA; MST: 25 mM MES pH 5.5, 100 mM NaCl, 0.05% Tween-20, 25 C, 5 nM labeled protein; settings: protein: recombinant; tags: C-terminal Fc; chain copies: 2; label: 5'-FAM; single strand
T1 sequence: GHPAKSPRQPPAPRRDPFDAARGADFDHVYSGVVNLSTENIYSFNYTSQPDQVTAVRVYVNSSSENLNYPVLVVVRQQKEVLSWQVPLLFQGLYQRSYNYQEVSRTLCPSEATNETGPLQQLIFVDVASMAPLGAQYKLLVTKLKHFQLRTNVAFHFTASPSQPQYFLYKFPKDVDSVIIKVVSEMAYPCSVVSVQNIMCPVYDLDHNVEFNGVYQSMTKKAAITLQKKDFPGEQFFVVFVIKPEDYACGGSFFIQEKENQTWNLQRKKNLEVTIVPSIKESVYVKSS

SIDT1 ECD = biological target: T2, SIDT1 ECD (Homo sapiens, UniProt Q9NXL6 23-310); test: EMSA; pH 5.5; EMSA: 40 mM Tris-acetate pH 5.5, 100 mM NaCl, 2.5 mM EDTA, 5% glycerol, RT 30 min, 2.5 uM RNA; MST: 25 mM MES pH 5.5, 100 mM NaCl, 0.05% Tween-20, 25 C, 5 nM labeled protein; settings: protein: recombinant; C-terminal 6xHis; label: 5'-FAM; single strand
T2 sequence: T1 sequence

[1] = Amplex Red phospholipase assay; settings: glycan lost; control: untreated full-length SIDT1
[2] = precipitation after deglycosylation; settings: glycan lost; control: untreated purified SIDT1ECD
[3] = 0-4 h incubation at pH 3.5, SDS-PAGE; settings: glycan changed form; control: SIDT1ECD expressed without kifunensine
[4] = Western blot of cells and medium, HEK293F; settings: glycan lost; control: WT SIDT1ECD
[5] = differential scanning fluorometry (Tycho); settings: glycan changed form; control: SIDT1ECD expressed without kifunensine, same pH

B1: FAM-ssRNA 21 nt (ssRNA)
RNA: UCGCUUGGUGCAGAUCGGGAC
- binding result (SIDT1 ECD-Fc): binds
- binding result (SIDT1 ECD): binds

B2: SIDT1: PNGase F (protein)
parent chain: MRGCLRLALLCALPWLLLAASPGHPAKSPRQPPAPRRDPFDAARGADFDHVYSGVVNLSTENIYSFNYTSQPDQVTAVRVYVNSSSENLNYPVLVVVRQQKEVLSWQVPLLFQGLYQRSYNYQEVSRTLCPSEATNETGPLQQLIFVDVASMAPLGAQYKLLVTKLKHFQLRTNVAFHFTASPSQPQYFLYKFPKDVDSVIIKVVSEMAYPCSVVSVQNIMCPVYDLDHNVEFNGVYQSMTKKAAITLQKKDFPGEQFFVVFVIKPEDYACGGSFFIQEKENQTWNLQRKKNLEVTIVPSIKESVYVKSSLFSVFIFLSFYLGCLLVGFVHYLRFQRKSIDGSFGSNDGSGNMVASHPIAASTPEGSNYGTIDESSSSPGRQMSSSDGGPPGQSDTDSSVEESDFDTMPDIESDKNIIRTKMFLYLSDLSRKDRRIVSKKYKIYFWNIITIAVFYALPVIQLVITYQTVVNVTGNQDICYYNFLCAHPLGVLSAFNNILSNLGHVLLGFLFLLIVLRRDILHRRALEAKDIFAVEYGIPKHFGLFYAMGIALMMEGVLSACYHVCPNYSNFQFDTSFMYMIAGLCMLKLYQTRHPDINASAYSAYASFAVVIMVTVLGVVFGKNDVWFWVIFSAIHVLASLALSTQIYYMGRFKIDLGIFRRAAMVFYTDCIQQCSRPLYMDRMVLLVVGNLVNWSFALFGLIYRPRDFASYMLGIFICNLLLYLAFYIIMKLRSSEKVLPVPLFCIVATAVMWAAALYFFFQNLSSWEGTPAESREKNRECILLDFFDDHDIWHFLSATALFFSFLVLLTLDDDLDVVRRDQIPVF
- enzymatic_activity [1]: no change
- stability_or_folding [2]: decreases

B3: SIDT1: kifunensine (protein)
parent chain: B2 parent chain
- degradation_or_half_life [3]: increases

B4: SIDT1: N57Q (protein)
parent chain: B2 parent chain
- expression_or_secretion [4]: decreases

B5: SIDT1: SIDT1ECD mutant (all N to Q) (protein)
parent chain: B2 parent chain
- expression_or_secretion [4]: decreases

B6: SIDT1: N83Q (protein)
parent chain: B2 parent chain
- expression_or_secretion [4]: no change

B7: SIDT1: N136Q (protein)
parent chain: B2 parent chain
- expression_or_secretion [4]: decreases

B8: SIDT1: N67Q (protein)
parent chain: B2 parent chain
- expression_or_secretion [4]: decreases

B9: SIDT1: kifunensine, pH 5.5 (protein)
parent chain: B2 parent chain
- stability_or_folding, Tm [5]: decreases, decrease of 1.7 vs 55.1 (pH 7.5), 60.5 (pH 5.5), 61.1 (pH 3.5)

B10: SIDT1: N282Q (protein)
parent chain: B2 parent chain
- expression_or_secretion [4]: no change

B11: SIDT1: kifunensine, pH 7.5 (protein)
parent chain: B2 parent chain
- stability_or_folding, Tm [5]: decreases, decrease of 4.7 vs 55.1 (pH 7.5), 60.5 (pH 5.5), 61.1 (pH 3.5)

B12: SIDT1: kifunensine, pH 3.5 (protein)
parent chain: B2 parent chain
- stability_or_folding, Tm [5]: decreases, decrease of 5.4 vs 55.1 (pH 7.5), 60.5 (pH 5.5), 61.1 (pH 3.5)
